In experiment [1] the target is T1, human MICA/B endogenously expressed on 786-O cells (MICA allele *008) (human, UniProt Q29983 24-331).
T1 construct: it speaks of MICA/B, so MICB may be present as well; also called 786-0
T1 chain: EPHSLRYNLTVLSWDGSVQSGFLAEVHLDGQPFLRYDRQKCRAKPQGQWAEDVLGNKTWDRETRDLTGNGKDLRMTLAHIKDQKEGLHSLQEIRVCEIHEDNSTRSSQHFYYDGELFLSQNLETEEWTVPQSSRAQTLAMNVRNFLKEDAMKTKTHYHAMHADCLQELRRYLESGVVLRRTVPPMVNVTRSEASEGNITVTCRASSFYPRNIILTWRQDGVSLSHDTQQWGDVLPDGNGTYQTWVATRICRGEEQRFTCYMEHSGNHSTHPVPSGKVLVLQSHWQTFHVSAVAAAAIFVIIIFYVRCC
In words: flow cytometry, tumor cells with endogenous MICA/B. (Flow cytometry measures light scatter and fluorescence of single cells or particles in a stream.)

Experiment [2] has as its target T2, human MICA/B endogenously expressed on HeLa cells (MICA allele *008) (human, UniProt Q29983 24-331).
T2 construct: it speaks of MICA/B, so MICB may be present as well
T2 chain: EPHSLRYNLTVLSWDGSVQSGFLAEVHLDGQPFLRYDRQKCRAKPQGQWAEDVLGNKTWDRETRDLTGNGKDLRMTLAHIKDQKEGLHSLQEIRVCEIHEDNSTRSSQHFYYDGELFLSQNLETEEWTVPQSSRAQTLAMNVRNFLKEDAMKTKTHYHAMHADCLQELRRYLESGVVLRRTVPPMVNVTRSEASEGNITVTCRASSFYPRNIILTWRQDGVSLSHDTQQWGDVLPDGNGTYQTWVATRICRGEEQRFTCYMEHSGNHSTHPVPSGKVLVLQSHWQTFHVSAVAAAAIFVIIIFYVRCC
Briefly: flow cytometry, tumor cells with endogenous MICA/B.

In experiment [3] the target is T3, human MICA/B endogenously expressed on RPMI-8226 cells (human, UniProt Q29983 24-383).
T3 construct: whole, on cells
T3 sequence (looked up): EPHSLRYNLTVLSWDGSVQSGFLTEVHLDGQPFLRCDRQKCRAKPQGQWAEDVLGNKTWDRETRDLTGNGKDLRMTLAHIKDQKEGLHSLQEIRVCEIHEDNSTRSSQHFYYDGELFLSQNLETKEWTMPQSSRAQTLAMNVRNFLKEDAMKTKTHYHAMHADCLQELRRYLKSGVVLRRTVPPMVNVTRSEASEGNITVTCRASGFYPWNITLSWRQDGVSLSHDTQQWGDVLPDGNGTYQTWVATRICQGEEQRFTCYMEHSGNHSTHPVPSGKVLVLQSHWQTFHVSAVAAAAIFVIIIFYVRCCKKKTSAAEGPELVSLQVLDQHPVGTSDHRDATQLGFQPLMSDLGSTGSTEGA
In words: flow cytometry, tumor cells with endogenous MICA/B.

Experiment [4] concerns the target T4, human MICA*004 expressed on CHO cells (human, UniProt Q29983 24-383).
T4 construct: also called MICA allele 004
T4 chain: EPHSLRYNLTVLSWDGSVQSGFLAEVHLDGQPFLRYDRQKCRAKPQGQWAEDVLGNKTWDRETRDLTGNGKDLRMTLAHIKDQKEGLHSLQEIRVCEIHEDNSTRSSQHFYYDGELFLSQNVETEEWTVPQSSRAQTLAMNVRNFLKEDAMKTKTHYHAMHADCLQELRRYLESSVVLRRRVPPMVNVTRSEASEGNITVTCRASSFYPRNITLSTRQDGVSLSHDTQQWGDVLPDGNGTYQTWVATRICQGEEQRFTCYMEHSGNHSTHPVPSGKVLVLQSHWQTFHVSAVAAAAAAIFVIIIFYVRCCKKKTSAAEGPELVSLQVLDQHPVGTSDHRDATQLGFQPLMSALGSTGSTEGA
Briefly: flow cytometry, transfected CHO cells.

Experiment [5] addresses T5, human MICA*008 expressed on CHO cells (human, UniProt Q29983 24-331).
T5 construct: also called MICA allele 008
T5 chain: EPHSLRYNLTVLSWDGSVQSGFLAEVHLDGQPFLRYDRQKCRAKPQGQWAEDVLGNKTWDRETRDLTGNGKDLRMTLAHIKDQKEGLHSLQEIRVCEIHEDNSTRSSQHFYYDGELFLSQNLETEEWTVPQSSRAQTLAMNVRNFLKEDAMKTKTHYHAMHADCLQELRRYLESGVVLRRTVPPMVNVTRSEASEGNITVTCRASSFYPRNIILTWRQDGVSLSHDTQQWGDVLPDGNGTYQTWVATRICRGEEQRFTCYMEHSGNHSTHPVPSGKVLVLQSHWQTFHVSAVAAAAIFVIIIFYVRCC
In words: saturation binding of 125I-labelled antibody on CHO-MICA*008 cells, 12,500 cells/well (Scatchard analysis); specific = total minus binding with 100-fold unlabelled antibody; unit from the x axis 'nM Antibody'. Here is the method: (§1) Nonspecific binding was determined by binding in the presence of a titration of a 100 fold molar excess of unlabeled antibody and was subtracted from total counts per minute (CPM) to calculate specific binding. A linear standard curve of ¹²⁵I-MICA.36 concentration versus CPM was used to extrapolate specific activity, maximal nM bound ¹²⁵I-MICA.36 and thereby calculate receptor number per cell.
(§2) Specific activity of the iodinated MICA.36 was determined by plotting antibody titrations against the associated CPMs in a standard curve (FIG. 7A). The specific activity was calculated to be 164,214 CPM in 1 nM of ¹²⁵I-MICA.36. The number of receptors per cell was calculated by the following equation: (Bmax)×(Avogadro's number)×(Assay Volume)/# of cells per well.

For experiment [6], the target named is T1, human MICA/B endogenously expressed on …. In words: Scatchard analysis, 125I-MICA.36 on 786-0 cells; 786-0 cells (FIG. 7F). Here is the method:
as §1, §2

For experiment [7], the target named is T5, human MICA*008 expressed on CHO cells. Briefly: saturation binding of 125I-labelled antibody on CHO-MICA*008 cells, 12,500 cells/well; fit of total binding, non-specific binding not subtracted. The method, then: as §1, §2
Experiment [8] deals with T6, cynomolgus monkey MICA/B clone #4 expressed on CHO cells (cynomolgus monkey).
T6 construct: whole, on cells; also called cyno#4; CHO-cyno MICA clone #4
In words: saturation binding of 125I-labelled antibody on CHO-MICA Cyno #4 cells, 25K per well; fit of total binding, non-specific binding not subtracted. Here is the method:
as §1

Experiment [9] concerns the target T7, human MICA/B endogenously expressed on SW480 cells (human, UniProt Q29983 24-383).
T7 construct: whole, on cells
T7 sequence (looked up): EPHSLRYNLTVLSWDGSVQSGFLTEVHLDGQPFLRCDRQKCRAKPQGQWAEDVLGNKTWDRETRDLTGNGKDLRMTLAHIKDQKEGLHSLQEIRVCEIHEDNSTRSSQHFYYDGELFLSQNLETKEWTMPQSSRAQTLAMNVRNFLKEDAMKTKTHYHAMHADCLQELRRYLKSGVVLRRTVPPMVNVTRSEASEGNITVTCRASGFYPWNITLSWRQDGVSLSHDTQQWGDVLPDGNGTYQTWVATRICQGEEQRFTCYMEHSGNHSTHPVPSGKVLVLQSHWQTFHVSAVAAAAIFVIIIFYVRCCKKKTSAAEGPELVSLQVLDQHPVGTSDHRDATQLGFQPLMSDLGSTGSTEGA
In words: saturation binding of 125I-labelled antibody on SW480 cells, 25,000 cells/well (Scatchard analysis); x axis 'Ab' carries no unit, nM taken from paragraph 587; non-specific binding is nearly as high as specific binding. Here is the method:
as §1, §2

The target of experiment [10] is T1, human MICA/B endogenously expressed on …. In words: saturation binding of 125I-labelled antibody on 786-O cells, 50,000 cells/well (Scatchard analysis); unit from the x axis 'nM Antibody'. Here is the method:
as §1, §2

Experiment [11] addresses T7, human MICA/B endogenously expressed on …. Briefly: saturation binding of 125I-labelled antibody on SW480 cells, 25,000 cells/well; fit of total binding, non-specific binding not subtracted; x axis without unit. Here is the method:
as §1, §2

Experiment [12] deals with T8, cynomolgus monkey MICA/B clone #6 expressed on CHO cells (cynomolgus monkey).
T8 construct: whole, on cells; also called cyno#6; CHO-cyno MICA clone #6
Briefly: flow cytometry (GMFI, FACSCalibur), CHO cells with cyno MICA #6; unit from the x axis; curve from about 1500 at 0.1 ug/ml to about 40500 GMFI at 40 ug/ml.

As a reminder, the EC50 is the concentration that produces a half-maximal response. The Kd is the concentration at which binding is half-saturated.

B1: 24G11 (antibody, V domains shown)
VH: EVQLVQSGAEVKKPGESLKISCKGSGYSFTNYWIGWVRQMPGKGLEWLGIIHPGDSYTRYSPSFQGQVTISADKSISTAYLQWSSLKASDTAIYYCAREGIAATPFDYWGQGTLVTVSS
VL: EIVLTQSPATLSLSPGERATLSCRASQSVSSYLAWFQQKPGQAPRLLIYDASNRATGIPARFSGSGSGTDFTLTISSLEPEDFAVYYCQQRSNWPPTFGQGTKVEIK
notes: also called MICA.54; 24G11 (MICA.54)
B1: the EC50 in [1] worked out at 147 nM; in experiment [2], 192 nM; in [3] it was 104 nM; in experiment [4], 518 nM.

B2: MICA.36 (antibody, V domains shown)
VH: QVQLVESGGGVVQPGRSLRLSCAASGFTFSNYAMHWVRQAPGEGLEWVALIWYDGSNKFYGDSVKGRFTISRDNSKNTLYLQMNSLSAEDTAVYYCAREGSGHYWGQGTLVTVSS
VL: AIQLTQSPSSLSASVGDRVTITCRASQGISSALAWYQQKPGKVPKSLIYDASSLESGVPSRFSGSGSGTDFTLTISSLQPEDFATYYCQQFNSYPITFGQGTRLEIK
notes: it says that the name implies no specific constant region; Radioiodinated in the Scatchard assay; also called MICA.36 antibody
Turning to B2, the Kd is 1.07 nM in experiment [5], roughly 0.4 nM in experiment [6], 0.385 nM in experiment [9] and 0.356 nM in experiment [10]. The “Kd of the total-binding curve” value in experiment [7] turned out to be 1.24 nM; in [8] it was 10.2 nM; in experiment [11] it was 0.871 nM.

B3: 19G6 (antibody, V domains shown)
VH: QVQLVESGGGVVQPGRSLRLSCAASGFTFSNYAMHWVRQAPGEGLEWVALIWYDGSNKFYGDSVKGRFTISRDNSKNTLYLQMNSLSAEDTAVYYCAREGSGHYWGQGTLVTVSS
VL: AIQLTQSPSSLSASVGDRVTITCRASQGISSALAWYQQKPGKVPKSLIYDASSLESGVPSRFSGSGSGTDFTLTISSLQPEDFATYYCQQFNSYPITFGQGTRLEIK
notes: Hybridoma antibody from human IgG transgenic mice, parent of MICA.36; also called 19G6 mAb; hybridoma 19G6
As for B3, the EC50 in [1] is 1.37 nM; in experiment [2], 1.76 nM; in experiment [3], 3.89 nM; in experiment [4], 11.4 nM; in [12] it was 3.3 µg/mL.

B4: 71C2 (antibody, V domains shown)
VH: EVQLVESGGGLVQPGRSLRLSCAASGFTFNNYAMHWVRQAPGKGLEWVSGITWNSDSIGYADSVKGRFTISRDNAKNSLYLQMNSLRAEDTALYYCAKDSVLLWFGGMDVWGQGTTVTVSS
VL: not shown
notes: Hybridoma antibody
Turning to B4, the EC50 is 13.8 nM in experiment [1], 10.2 nM in experiment [2], 36.9 nM in experiment [3] and 26.2 nM in experiment [4].

B5: MICA.2 (antibody, human IgG1, kappa, V domains shown)
VH: EVQLVESGGGLVQPGGSLRLSCAASGFTFSTYSMNWVRQAPGKGLEWVSYISYRSRTIYYADSVKGRFTISRDNARNSLYLQMNSLRDEDTAVYYCARWGYGSGGFDYWGQGTLVTVSS
VL: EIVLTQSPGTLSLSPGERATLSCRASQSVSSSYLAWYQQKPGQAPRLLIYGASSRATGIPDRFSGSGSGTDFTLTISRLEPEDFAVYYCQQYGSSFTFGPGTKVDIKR
notes: 3F5 variable regions on human IgG1f and human kappa constant regions, made in CHO-S cells; also called 3F5; recombinant antibody of 3F5
Turning to B5, the EC50 in experiment [1] came to 4.95 nM; in experiment [2] it was 1.74 nM; in experiment [3] it was 41.9 nM; in [4], 2.94 nM.

These data come from US20220281980A1 (Bristol-Myers Squibb, published 2022).
